According to the nanobody polyreactivity screen of Harvey et al. (2022):

Test: yeast display, Sf9 membrane polyspecificity reagent, FACS + sequencing; frameworks hold sequencing errors
Procedure, shortened: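 In a synthetic yeast display library (Saccharomyces cerevisiae BJ5465), nanobody expression was induced with galactose for 36–48 hours. FACS gates were set low and high (top ~1%) using anti-HA fluorescence for expression and streptavidin fluorescence for binding of the Sf9 membrane reagent. Each polyreactivity label is drawn from the gate of origin.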

Sequence	polyreactivity (PSR sort gate)
QVQLVESGGGLVQAGGSLRLSCAASGRILTSYARGWYRQAPGKVRELVAAISYVCGSTDYADSVKGRFTISRDNAKNTVYLQMNSLKPEDTAVYYCAAKVRYYLSLRGSTTRRDDYYWGQGTQVTVSS	low polyreactivity
QVQLVESGGGLVQAGGSLRLSCAASGSTFRNYAMGWYRQAPGKERELVAAISGSGGRTNYADSVKGRFTISRDNAKNTVYLQMNSLKPEDTAVYYCNGRFPDWALSEISHSTTYGYWGQGTQVTVSS	low polyreactivity
QVQLVESGGGLVQAGGSLRLSCAASGITFSSYAMGWYRQAPGTEREFVARISTDADTYYADSVKGRFTISRDNAKHTVLLQMNSLKPEDTAVYYCAAEDYRDFDYWGHGTQVTVSS	low polyreactivity
QVQIVESGGGLFQAGGILRLSCAASGLTLFRDAMGWYRQAPGKERELVAAIDYGGGTYYADSVKGRFTISRDNAKTTVNLQMNRLKVEDTAVYYCAVEPEYKYYEGDFWGQGTQVTVSS	low polyreactivity
QVHLVESGGGLVQAGGSLRLSCAASGRIFYSNVMGWYSQAPGKERELLAAISWSGGRTYYADSVKGRFTISRDNAKNTVYLQMNSLKPEDTAVYYCAAPGGVKYDYWGQGTQVTVSS	high polyreactivity
QVQLVESGGGLVQAGGSLRLSCAASGITFYSNAMGWYRQAPGKERELVATITRGGSTYYADSVKGRFTISRDNAKNTVYLQMNSLKPEDTAVYYCAADYSYRGREYGYWGQGTQVTVSS	low polyreactivity
QVQLVESGGGLVQAGGSLRLSCAASGLTFRKNAMGWYRQAPGKERELVAGISSGGSTYYADSVKGRFTISRDNAKNTVYLQMNSLKPEDTAVYYCGANALRTMYYWGQGTQVNVSS	high polyreactivity
QVQLVESGGGLVQAGGSLRLSCAASGRTFGFNAMGWYRQAPGKDRELVASITRGGRTDYADSVKGRFTISRDNAKNTVYLQMNSLKPEDTAVYYCAAQSGWHHTGGMYYWGQGTQVTVSS	high polyreactivity
QVQLVESCGALVQAGGSLRLICAGSGSIFHVNAMGWSRPAHGKESELVAGISDGGSTYYADSVKGRFTISRYYAKNTVYFQMNSLKPEDSGVYYWATDYPSRWHVHRGFQGKYDYWGQGTQVTLSS	low polyreactivity
QVQLVESGGRLFQAGGSLRLSCAASGRTWGYEMGWYRQATGKERELVAAIRNGASTYYADSVKGRFTISRDNAKKTVYFHMNSRKPEDTAVYYCDADYTVRVVATYDYWGQGTQVTVSS	low polyreactivity
QVQLVESRGGLVQAGGSLRLSCAASGSIFPYNAMGWYRQAPGKEREFVAAINLSGGSTNYADSVKGRFTISRDNAKNTVYLQMNSLKPEDTAVYYCNAPVDYFWPLNFDYWGQGTQVTVSS	low polyreactivity
QVQLVESVGGLVQAGGSLRLSCAASGFIFYSNAMGWYRKAPGKERELVAAISRSGGSTYYADSVKGRFTISRDNAKNTVYLQMNSLKPEDTAVYYCNVYCYDWWGYDYWGQGTQVTVSS	high polyreactivity
QVQLVESGGGLVQAGGSLRLSCAASGGIFYLYVMGWYRQAPGKERELVAAITSRGGRTYYADSVKGRFTISRDNAKNTVYLQMNSLKPEDTAVYYCNASQSDIFDYDYWGQGTQVTVSS	low polyreactivity
QVQLVESGGGLVQAGGSLRLSCAASGSTLGQYVMGWYRQAPGKERELVAAISRRGGRTNYADSVKGRFTISRDNAKNTVYLQMNSLNPEDTAVYYCAAKFRIYRPSKYYYWGQGTQVTVSW	high polyreactivity
QVQLVESGGGLVQAGGRLRLSCAASGFTIPYKAMGWYRQAPGKERELVAAISRSGTRTYYADSVKGRFTISRDNAKNTLYIQMNSLKPEDTAVYYCAKDTIGGASPHYYWGKGTQVTVSS	high polyreactivity
QVQLVESGGGLVQAGGSLRLTCAASGSTFQVNDMGWYRQAPGKDRELLASISGGSSTNYADSVKGRFTISRDNAKNTVYLQMHSLQPEDTAVYYCAAYYLSGLRVAYDYWGQGPQVTVSS	low polyreactivity
QVQLVESGGGLVQAGGSLRLSCAASGSTFVENAMGWYRQAPGKEREVVAAISSSGDSTFYADSVKGRFTISRDNAKNTVYLQMKSLKPEDTAVYYCAADRRINYDGLDMDYWGQGTQVTVSS	low polyreactivity
QVQLVESGGGLVQAGGSLRLSSAASGSTFLRYAMGWYRQAPGKERELVAAISYSGGSTYYADSVKGRFTISRDNAKNTVYLQMNSLIPQDTAVNYCNAGVFANDNGGRRDHFTWEYEYWGQGTQVTVSS	low polyreactivity
QVQLVESGGGLVQAGGSLRLSCAASGSIFPFYAMGWYRQAPGKEREMLAANSDRGGSTYYADSVKGRFTISRDNAKNTVYLQMNSLKPEDTAVYYCNADRARFTYRATTYTGRYDYWGQGTQVTVSS	low polyreactivity
QVQLVESGGGLVQAGGSHRLSCAASGSTFTGYAMACYRQAPGKEREFVAGNTGSGGSTYYADSVKGRFTISRDIAKNSVYFQMISLKPEDTAVYYCAASFWYHYVWLDYYWGQGTQVTVSS	low polyreactivity
QVQLVESGGGLVQAGGSLRLSCAASGRIFPWYAMGWYRQAPGKERELVATITRGTSTNYADSVKGRFTISRDNAKNTVYLQMNSLKPEDTAVYYCAASSSRRRYYYWGQGTQVTVSS	high polyreactivity
QVQLVESGGGLFQAGGTLRLSCDASGLIFLSYGMAWYRQAPGKERELVAAISSGGSTYYADSVKGRFTISRDNAKNTDYLQMNSLKPEDTAVYYCASEQPIEFDHWGQGTQVTVSS	low polyreactivity

Sequence	polyreactivity (PSR sort gate)
QVQLVESGGGLVQAGGSLRLSCAASGSTFRAYAMGWYRQAPGKEREFVADISWSGGSTYYADSVKGRFTISRDNAKNTVYLQMNSLKPEDSAVYYCAAEAAPLIIVTYDYWGQGTQVTVSS	low polyreactivity
QVQLVESGGGLVQAGGSLRLSCAASGSTFRYYDMGWYRQAPGKERELVADISSGGSTYYADSVKGRFTISRDNAKNTVYLQMNSLKPEDTAVYYCAAAYLSWLFRYDYWGQGTQVTVSS	high polyreactivity
QVQLVESGAGLVQAAGSLRLSCDASGYIFEWNAMGWYRQAPGKERELVASIDSDGSTYYADSVKGRFTISRDNAKNTVYLQMNSLKPEDTAVYYSAKSIDGWYWRRRRYDYWGQGTQVTVSS	low polyreactivity
QVQLVESGGGLVQAGGSLLLSCAASGLIFSWNAMGWYRQAPGKERELVASISYSGGRTYYADSVKGRFTISRDNAKNTVYLQMNSLKPEDTAVYYCAADTNATTDPEMDYWGQGTQVTVSS	low polyreactivity
QVQLVESGGGLVQAGGSLRLSCAASGSIFPHNAMGWYRQAPGKERELVAAISVSRGSTYYADSVKGRFTISRDNAKNTVYLQMNSLKPEDTAVYYCAAYAYGGRINGYRTYRYNYWGQGTQVTVSS	high polyreactivity
QVQLVESGGGLVQAGGSLRLSCAASGRTFVSNAMGWYRQAPGKERELVAAISVRGGRTYYADSVKGRFTISRDNAKNTVYLQMNSLKPEDTAVYYCNAVYRTYEYYWGQGTQVTVSS	high polyreactivity
QDHLVESGGGLVQAGGSLRLSCSASGSNFRSYAMGWYRQAPGKERELVAAITWSGGRTYYADSVKGRFTISRDNAKNTVYLQMNSLKPEDTAVYYCNAVYLAYGGAYWGQGTQVTVSS	high polyreactivity
QVQLVESGGGLVQAGGSLRLSCAASGLIFGRNAMGWYRQAPGKERELVAAITSGGSTYYADSVKGRFTISRDNAKNTVYLQMNSLKPEDTAVYYCFVDYYPYDYWGQGTQVTVSS	low polyreactivity
QVQLVESGGGLVQAGGSLRLSCASSGSIFGSNAMGWYRQAPVKERELVAAITWSDGSTYYADSVKGRFTISRDNAKNTVYLQMNSLKPEDTAVYYCAVVWRGGYRWPYEYWGQGTQVTVSS	low polyreactivity
QVQHVESGRGLVQAGGSLRLSCAASGITFNQYAMGWYRQAPGKERELVAGISYSGGSTYYADSVKGRFTISRDNAKNTVYFQMISLKPEDTAVYYCAKRSPFTLDYWGQGTQVTVSS	high polyreactivity
QVQLVESGGGLVQSGGSLRLSCAASGRIFRAYAMGWYIQAPGQERELVADITSGSGSTYYADSVKGRFTISRDYANNTVYLHMNSLKTEDTAVYYCAAYVLIRVWEYYYWGQGTQVNVSS	low polyreactivity
QVQLVESGGGLVQAGGSLRLSCAASGSTFAYYAMGWYRQAPGKERELVASISWRGGSTYYAESVKGRFTISRDNAKNTVYLQMNSLKPEDTAVYYCAAGRFYTWSRSQEYDYWGQGTQVTVSS	low polyreactivity
QVQHVESGGRLVQAGGILRLSCAASGRIFQSNAMGWYRQTPGKERELVAGITKRGGSTYYADSVKGRFTISLDYAKNTVYLQMNSLTPEDTAVYYCAKSWSYDPRYGSWGQGTQVTVSS	high polyreactivity
QVQLVESGGGLVQAGGSLRLSCAASGSILFYAMGWYRQAHGKERELVAAITWRGGSTFYADSVKGRFTISRDNAKNTVYLQMNSLKPDDTAVYYCAASYYRYGHRSRGRYYYWGQGTQVTVSS	high polyreactivity
QVQLVESWGGLVQAGGSLRLSCAASGFIFYRYAMGWYRQAPGKERELVAVISVSGGSTYADSVKGRFTISRDNAKNTVYLQMNSLKPEDTAVYYCAARRYSYYRVHGTRHDYWGQGTQVTVSS	high polyreactivity
QVQLVESGGGLVQAGGSLRLSCAASGSTFDFNAMGWYRQAPGKERELVAAITGSDGNTYYADSVKGRFTISRDNAKNTVYLQMNSLKPEDTAVYYCAADFSWWSKYVVLYDYWGQGTQVTVSS	low polyreactivity
QVQLVESGGGLVQAGGSLRLSCAASGITFWYYAMGWYRQAPRKERELVAAISWDGGSTYYADSVKGRFTISRDNAKNTVYVQMNSLKPEDTAVYYCNAVRYLERKYDYWGQGTQVTVSS	high polyreactivity
QVQLVESGGGLVQAGGSLRLSCAASGSTFVTNAMGWYSQAPGKEREFVAAISNSSGSTYYADSVKGRFTISRDNAKNTVYLQMNSLKPEDTAVYYCNATPDDWLQEDYWGQGTQVTVSS	low polyreactivity
QVQLLESGVGKVQAGGRLRLSCAASGSIFLIYAMGWYRQAPGKESELVAAISSGGSKYYADSVNGRFTISRDNAKNTVYLQMNSVKPEDTAVYYCATYSTCVAYHLYYWGQGTQVSVSS	low polyreactivity
QVQLVESGGGLVQAGGSLRLRCAASGGIFGFYAMGWYRQAPGKERELVAAISWGGGSTYYADSVKGRFTIARDNAKNTVFVQMNSLKPEDTAVYYCAADPALTKEYGYWGQGTQVTVSS	low polyreactivity
QVQLVESGGGLVQAGGSLRLSCAASGSTFNEYVMGWYRQAPGKERELVAAITGGGGRTYYADSVKGRFTISRDNAKNTVYLQMNSQKPEDTAVYYCAKRYLYGTYWGFFRYDYWGQGTQVTVSS	low polyreactivity
